{"source": "paper PMC5558906", "test_in_all_cases": "EMSA", "key": {"eIF4G1 [1]": {"target": "T1, eIF4G1 (Saccharomyces cerevisiae, UniProt P39935 1-952)", "T1 sequence": "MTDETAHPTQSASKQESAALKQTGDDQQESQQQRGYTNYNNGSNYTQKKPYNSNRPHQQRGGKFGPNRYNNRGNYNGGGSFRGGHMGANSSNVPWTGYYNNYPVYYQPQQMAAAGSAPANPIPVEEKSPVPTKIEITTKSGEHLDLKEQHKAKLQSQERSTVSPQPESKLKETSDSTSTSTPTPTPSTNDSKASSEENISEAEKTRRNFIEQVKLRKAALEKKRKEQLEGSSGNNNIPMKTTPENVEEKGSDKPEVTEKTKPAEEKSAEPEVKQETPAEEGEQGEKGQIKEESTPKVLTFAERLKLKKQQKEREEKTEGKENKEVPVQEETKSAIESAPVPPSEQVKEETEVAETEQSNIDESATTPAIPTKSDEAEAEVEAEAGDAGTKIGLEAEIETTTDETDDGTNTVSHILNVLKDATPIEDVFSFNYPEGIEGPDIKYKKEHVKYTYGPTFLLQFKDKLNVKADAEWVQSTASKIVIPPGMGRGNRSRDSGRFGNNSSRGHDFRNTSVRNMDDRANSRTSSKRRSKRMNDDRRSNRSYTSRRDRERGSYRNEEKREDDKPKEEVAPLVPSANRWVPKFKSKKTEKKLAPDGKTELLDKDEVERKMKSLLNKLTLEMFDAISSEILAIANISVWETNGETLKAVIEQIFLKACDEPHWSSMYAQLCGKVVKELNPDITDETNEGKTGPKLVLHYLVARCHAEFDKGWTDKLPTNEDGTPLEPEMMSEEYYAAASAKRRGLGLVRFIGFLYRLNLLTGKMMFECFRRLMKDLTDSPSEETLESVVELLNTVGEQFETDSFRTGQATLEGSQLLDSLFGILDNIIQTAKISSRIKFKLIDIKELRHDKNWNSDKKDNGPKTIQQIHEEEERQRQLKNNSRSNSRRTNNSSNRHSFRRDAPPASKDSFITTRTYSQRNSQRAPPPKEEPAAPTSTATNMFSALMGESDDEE"}, "eIF4G1 [2]": {"target": "T1, eIF4G1", "remark": "listed apart in the source"}, "eIF4G1 [3]": {"target": "T1, eIF4G1", "remark": "listed apart in the source"}}, "note": "Like-named read-outs stand apart in the source and are kept apart here.", "data": [{"binder": "AAAAAAAAAAAAAAAAAAAAAAAAAAAAAAAAAAAAAAAA (ssRNA)", "note": "[A40]", "values": [{"measurement": "binding signal", "setting": "eIF4G1 [1]", "value": 17, "unit": "fold weaker than U40"}]}, {"binder": "U10 in CA repeats (ssRNA) RNA: GCACACACACACACACACACAUUUUUUUUUUCACACACACACACACACACA", "values": [{"measurement": "binding result", "setting": "eIF4G1 [2]", "value": "binds"}]}, {"binder": "UUUUUUUUUUUUUUUUUUUUUUUUUUUUUUUUUUUUUUUU (ssRNA)", "note": "[U40]", "values": [{"measurement": "binding signal", "setting": "eIF4G1 [3]", "value": 17, "unit": "fold tighter than A40"}]}]}
